± gives the standard deviation of the averaged measurements.
Experiment: total protein half-life in vivo (active degradation + dilution); higher = more stable protein
[1] = E. coli NCM3722 delta-clpP delta-lon delta-hslV, growth: N-lim chemostat, doubling time 6 h
[2] = E. coli NCM3722 delta-clpP, growth: N-lim chemostat, doubling time 6 h
[3] = E. coli NCM3722 delta-hslV, growth: N-lim chemostat, doubling time 6 h
[4] = E. coli NCM3722 delta-lon, growth: N-lim chemostat, doubling time 6 h
[5] = E. coli NCM3722 delta-smpB, growth: N-lim chemostat, doubling time 6 h
[6] = wild type E. coli NCM3722, growth: C-lim chemostat, doubling time 3 h
[7] = wild type E. coli NCM3722, growth: C-lim chemostat, doubling time 6 h
[8] = wild type E. coli NCM3722, growth: C-lim chemostat, doubling time 12 h
[9] = wild type E. coli NCM3722, growth: N-lim chemostat, doubling time 6 h
[10] = wild type E. coli NCM3722, growth: N-lim chemostat, doubling time 12 h
[11] = wild type E. coli NCM3722, growth: P-lim chemostat, doubling time 6 h
[12] = wild type E. coli NCM3722, growth: P-lim chemostat, doubling time 12 h

MSKLIVPQWPQPKGVAACSSTRIGGVSLPPYDSLNLGAHCGDNPDHVEENRKRLFAAGNLPSKPVWLEQVHGKDVLKLTGEPYASKRADASYSNTPGTVCAVMTADCLPVLFCNRAGTEVAAAHAGWRGLCAGVLEETVSCFADNPENILAWLGPAIGPRAFEVGGEVREAFMAVDAKASAAFIQHGDKYLADIYQLARQRLANVGVEQIFGGDRCTYTENETFFSYRRDKTTGRMASFIWLI
total protein half-life in vivo [1]: 5.05 ± 0.14 h
total protein half-life in vivo [2]: 4.77 ± 0.76 h
total protein half-life in vivo [3]: 4.885 ± 0.007 h
total protein half-life in vivo [4]: 5.03 ± 0.24 h
total protein half-life in vivo [5]: 4.05 ± 1 h
total protein half-life in vivo [6]: 3.198 ± 0.027 h
total protein half-life in vivo [7]: 5.11 ± 0.72 h
total protein half-life in vivo [8]: 8.61 ± 0.21 h
total protein half-life in vivo [9]: 5.03 ± 0.22 h
total protein half-life in vivo [10]: 9.17 ± 0.77 h
total protein half-life in vivo [11]: 5.644 ± 0.043 h
total protein half-life in vivo [12]: 11.9 ± 0.43 h

MSKPAITLWSDAHFFSPYVLSAWVALQEKGLSFHIKTIDLDSGEHLQPTWQGYGQTRRVPLLQIDDFELSESSAIAEYLEDRFAPPTWERIYPLDLENRARARQIQAWLRSDLMPIREERPTDVVFAGAKKAPLTAEGKASAEKLFAMAEHLLVLGQPNLFGEWCIADTDLALMINRLVLHGDEVPERLVDYATFQWQRASVQRFIALSAKQSG
total protein half-life in vivo [1]: 4.94 ± 0.39 h
total protein half-life in vivo [2]: 5.5 ± 1.7 h
total protein half-life in vivo [3]: 4.804 ± 0.025 h
total protein half-life in vivo [4]: 5.18 ± 0.9 h
total protein half-life in vivo [5]: 4.79 ± 0.39 h
total protein half-life in vivo [6]: 2.97 ± 0.081 h
total protein half-life in vivo [7]: 5.9 ± 0.35 h
total protein half-life in vivo [8]: 9.65 ± 1.6 h
total protein half-life in vivo [9]: 4.86 ± 0.41 h
total protein half-life in vivo [10]: 8.65 ± 0.19 h
total protein half-life in vivo [11]: 5.764 ± 0.044 h
total protein half-life in vivo [12]: 12.5 ± 0.95 h

MSKPPLFFIVIIGLIVVAASFRFMQQRREKADNDMAPLQQKLVVVSNKREKPINDRRSRQQEVTPAGTSIRYEASFKPQSGGMEQTFRLDAQQYHALTVGDKGTLSYKGTRFVSFVGEQ
total protein half-life in vivo [2]: 6.5 h
total protein half-life in vivo [3]: 6.4 ± 0.69 h
total protein half-life in vivo [4]: 5.45 ± 0.15 h
total protein half-life in vivo [5]: 5.65 ± 0.38 h
total protein half-life in vivo [6]: 3.61 ± 0.1 h
total protein half-life in vivo [7]: 6.11 ± 0.42 h
total protein half-life in vivo [8]: 11.6 ± 0.63 h
total protein half-life in vivo [9]: 5.71 ± 0.065 h
total protein half-life in vivo [10]: 11.3 ± 0.54 h
total protein half-life in vivo [11]: 5.66 ± 0.5 h
total protein half-life in vivo [12]: 11.5 ± 0.14 h

MSKRKVAIIGSGNIGTDLMIKILRHGQHLEMAVMVGIDPQSDGLARARRMGVATTHEGVIGLMNMPEFADIDIVFDATSAGAHVKNDAALREAKPDIRLIDLTPAAIGPYCVPVVNLEANVDQLNVNMVTCGGQATIPMVAAVSRVARVHYAEIIASIASKSAGPGTRANIDEFTETTSRAIEVVGGAAKGKAIIVLNPAEPPLMMRDTVYVLSDEASQDDIEASINEMAEAVQAYVPGYRLKQRVQFEVIPQDKPVNLPGVGQFSGLKTAVWLEVEGAAHYLPAYAGNLDIMTSSALATAEKMAQSLARKAGEAA
total protein half-life in vivo [1]: 4.09 ± 1.4 h
total protein half-life in vivo [2]: 5.24 ± 2.6 h
total protein half-life in vivo [3]: 2.65 ± 0.48 h
total protein half-life in vivo [4]: 2.43 h
total protein half-life in vivo [5]: 2.21 ± 0.73 h
total protein half-life in vivo [6]: 2.71 ± 0.36 h
total protein half-life in vivo [7]: 4.45 h
total protein half-life in vivo [8]: 6.77 ± 2.3 h
total protein half-life in vivo [9]: 5.59 h
total protein half-life in vivo [10]: 4.45 h
total protein half-life in vivo [11]: 3.53 h
total protein half-life in vivo [12]: 6.2 ± 0.2 h

MSKSNPSEVKLAVPTSGGFSGLKSLNLQVFVMIAAIIAIMLFFTWTTDGAYLSARNVSNLLRQTAITGILAVGMVFVIISAEIDLSVGSMMGLLGGVAAICDVWLGWPLPLTIIVTLVLGLLLGAWNGWWVAYRKVPSFIVTLAGMLAFRGILIGITNGTTVSPTSAAMSQIGQSYLPASTGFIIGALGLMAFVGWQWRGRMRRQALGLQSPASTAVVGRQALTAIIVLGAIWLLNDYRGVPTPVLLLTLLLLGGMFMATRTAFGRRIYAIGGNLEAARLSGINVERTKLAVFAINGLMVAIAGLILSSRLGAGSPSAGNIAELDAIAACVIGGTSLAGGVGSVAGAVMGAFIMASLDNGMSMMDVPTFWQYIVKGAILLLAVWMDSATKRRS [P0AGI4]
total protein half-life in vivo [5]: 4.37 ± 0.55 h
total protein half-life in vivo [6]: 3.44 ± 0.11 h
total protein half-life in vivo [7]: 5.06 ± 1.1 h
total protein half-life in vivo [8]: 9.1 ± 0.54 h
total protein half-life in vivo [11]: 4.71 ± 0.42 h
total protein half-life in vivo [12]: 8.47 h

MSKTIATENAPAAIGPYVQGVDLGNMIITSGQIPVNPKTGEVPADVAAQARQSLDNVKAIVEAAGLKVGDIVKTTVFVKDLNDFATVNATYEAFFTEHNATFPARSCVEVARLPKDVKIEIEAIAVRR [P0AF93]
total protein half-life in vivo [1]: 6.26 ± 0.82 h
total protein half-life in vivo [2]: 5.12 ± 0.65 h
total protein half-life in vivo [3]: 5.28 ± 0.082 h
total protein half-life in vivo [4]: 5.91 ± 0.21 h
total protein half-life in vivo [5]: 5.15 ± 0.68 h
total protein half-life in vivo [6]: 3.16 ± 0.28 h
total protein half-life in vivo [7]: 5.56 ± 0.15 h
total protein half-life in vivo [8]: 10.8 ± 1.1 h
total protein half-life in vivo [9]: 4.88 ± 0.16 h
total protein half-life in vivo [10]: 8.99 ± 0.37 h
total protein half-life in vivo [11]: 5.694 ± 0.0093 h
total protein half-life in vivo [12]: 12.8 ± 0.61 h

MSLAKASLWTAASTLVKIGAGLLVGKLLAVSFGPAGLGLAANFRQLITVLGVLAGAGIFNGVTKYVAQYHDNPQQLRRVVGTSSAMVLGFSTLMALVFVLAAAPISQGLFGNTDYQGLVRLVALVQMGIAWGNLLLALMKGFRDAAGNALSLIVGSLIGVLAYYVSYRLGGYEGALLGLALIPALVVIPAAIMLIKRGVIPLSYLKPSWDNGLAGQLSKFTLMALITSVTLPVAYIMMRKLLAAQYSWDEVGIWQGVSSISDAYLQFITASFSVYLLPTLSRLTEKRDITREVVKSLKFVLPAVAAASFTVWLLRDFAIWLLLSNKFTAMRDLFAWQLVGDVLKVGAYVFGYLVIAKASLRFYILAEVSQFTLLMVFAHWLIPAHGALGAAQAYMATYIVYFSLCCGVFLLWRRRA [P0AAA7]
total protein half-life in vivo [11]: 5.48 h

MSLDINQIALHQLIKRDEQNLELVLRDSLLEPTETVVEMVAELHRVYSAKNKAYGLFSEESELAQTLRLQRQGEEDFLAFSRAATGRLRDELAKYPFADGGFVLFCHYRYLAVEYLLVAVLSNLSSMRVNENLDINPTHYLDINHADIVARIDLTEWETNPESTRYLTFLKGRVGRKVADFFMDFLGASEGLNAKAQNRGLLQAVDDFTAEAQLDKAERQNVRQQVYSYCNEQLQAGEEIELKSLSKELAGVSEVSFTEFAAEKGYELEESFPADRSTLRQLTKFAGSGGGLTINFDAMLLGERIFWDPATDTLTIKGTPPNLRDQLQRRTSGGN
total protein half-life in vivo [1]: 6.4 ± 0.28 h
total protein half-life in vivo [2]: 6.91 ± 0.46 h
total protein half-life in vivo [3]: 5.81 ± 0.19 h
total protein half-life in vivo [4]: 5.78 ± 0.17 h
total protein half-life in vivo [5]: 5.911 ± 0.055 h
total protein half-life in vivo [6]: 3.22 ± 0.17 h
total protein half-life in vivo [7]: 6.07 ± 0.17 h
total protein half-life in vivo [8]: 10.4 ± 2.2 h
total protein half-life in vivo [9]: 6.08 ± 0.28 h
total protein half-life in vivo [10]: 12 ± 2.2 h
total protein half-life in vivo [11]: 6.08 ± 0.094 h
total protein half-life in vivo [12]: 12.7 ± 0.4 h

— the supplement of paper PMC11246515
